Source: patent US7053177B1, “Random peptides that bind to gastro-intestinal tract (GIT) transport receptors and related methods” (Cytogen Corporation, priority 1997, dated 2006)
Square brackets hold non-standard residues; d marks the D form. Ends that are not written are not given here. Peptide text beside a SMILES is read from it. * marks the point of attachment. Dansyl = CN(C)c1cccc2c(S(=O)(=O)*)cccc12

T1: recombinant D2H receptor domain (human D2H transporter, amino acid residues 387-685), His-tag fusion protein (human) (UniProt Q07837)
T1 sequence: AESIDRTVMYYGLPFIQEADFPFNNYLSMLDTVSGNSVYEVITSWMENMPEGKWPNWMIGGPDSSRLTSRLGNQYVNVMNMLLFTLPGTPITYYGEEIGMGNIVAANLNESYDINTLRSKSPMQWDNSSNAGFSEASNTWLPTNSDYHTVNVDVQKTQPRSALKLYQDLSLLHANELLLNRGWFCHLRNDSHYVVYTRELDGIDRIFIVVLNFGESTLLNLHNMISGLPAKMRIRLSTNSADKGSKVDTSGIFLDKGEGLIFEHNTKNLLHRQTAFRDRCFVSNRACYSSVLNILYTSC


Columns and labels:
[1] = system: P100 membrane fraction of Caco-2 cells; experiment: Binding of dansylated peptides to P100 fractions (peptide/particle correlation)
Method: Caco-2 cell membrane (P100) and cytosolic (S100) fractions were prepared using a modification of the method described in Kinsella, B. T., O'Mahony, D. J. and G. A. FitzGerald, 1994, J. Biol. Chem. 269(47): 29914–29919. Confluent Caco-2 cell monolayers (grown in 75 cm^2 flasks for up to 1 week at 37° C. and 5% CO2) were washed twice in Dulbecco's PBS (DPBS) and the cells were harvested by centrifugation at 1000 rpm after treatment with 10 mM EDTA-DPBS. The cells were washed 3 times in DPBS and the final cell pellet was resuspended in 3 volumes of ice cold HED buffer (20 mM HEPES (pH 7.67), 1 mM EGTA, 0.5 mM dithiothreitol, 1 mM phenylmethylsulphonyl fluoride (PMSF)). The cells were allowed to swell for 5 min on ice prior to homogenization for 30 sec. The homogenates were centrifuged at 40,000 rpm for 45 min at 4° C. The supernatant (S100) was removed and the pellet (P100) was resuspended in HEDG buffer (20 mM HEPES (pH 7.67), 1 mM EGTA, 0.5 mM dithiothreitol, 100 mM NaCl, 10% glycerol, 1 mM PMSF). Protein concentrations were determined using the Bradford assay (Bradford, M. M., 1976, Anal. Biochem. 72: 248–254).
Binding of peptide and/or peptide-coated PLGA particles to membrane (P100) and cytosolic (S100) fractions was assessed by detection of the dansyl moiety incorporated in the peptide. Costar ninety six well ELISA plates were coated with S100 and P100 fractions (100 μg/ml in 0.05 M NaHCO3) overnight at 4° C. The plates were blocked with 0.5% bovine serum albumin in DPBS for 1 h at room temperature and washed 3 times in 1% BSA-DPBS. Peptide-coated particles or peptides were dispersed in the same buffer and added to the plates at concentrations in the range 0.0325–0.5 mg/well. […] The plates were incubated for 1 h at room temperature. The wells were washed 3 times in 1% BSA-DPBS and 100 μl of goat anti-mouse IgGλ:HRP antibody (Southern Biotechnology 1060-05; 1:10,000) was added per well. The plates were incubated for 1 h at room temperature. After washing 3 times in 1% BSA-DPBS 100 μl of TMB substrate (3,3′,5′,5-tetramethylbenzidine; Microwell Peroxidase Substrate System (Kirkegaard and Perry Laboratories 50-76-00)) was added and the optical density was measured at 650 nm at various time intervals.
Binding of dansylated peptides to P100 fractions was assessed to determine if peptide binding was predictive of peptide-coated particle binding.

[2] = biological target: BSA (Bos taurus, UniProt P02769); experiment: Receptor ELISA of phage on BSA (background control protein); type: binding; details: Table 5; phage panned on HPT-1
BSA, sequence (P02769 25-607): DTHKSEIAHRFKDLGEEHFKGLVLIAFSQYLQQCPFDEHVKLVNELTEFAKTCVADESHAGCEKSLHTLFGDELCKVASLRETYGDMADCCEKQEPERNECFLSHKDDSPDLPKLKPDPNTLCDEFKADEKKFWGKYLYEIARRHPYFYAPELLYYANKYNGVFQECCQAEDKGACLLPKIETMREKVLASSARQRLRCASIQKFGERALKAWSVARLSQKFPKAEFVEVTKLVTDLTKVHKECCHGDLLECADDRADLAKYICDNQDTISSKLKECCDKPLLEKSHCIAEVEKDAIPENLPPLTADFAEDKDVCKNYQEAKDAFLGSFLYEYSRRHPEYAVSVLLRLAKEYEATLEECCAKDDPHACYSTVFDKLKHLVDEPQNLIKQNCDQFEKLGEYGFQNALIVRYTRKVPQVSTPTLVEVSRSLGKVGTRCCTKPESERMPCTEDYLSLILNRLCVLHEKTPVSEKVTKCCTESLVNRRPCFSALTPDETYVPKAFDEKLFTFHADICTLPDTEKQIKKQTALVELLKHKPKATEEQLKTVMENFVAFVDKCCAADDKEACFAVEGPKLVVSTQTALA
Method: 96 well plates were coated overnight with GIT receptor, BSA and, optionally, IDE (insulin degrading enzyme, an irrelevant His-fusion protein)or hTF. The plates were blocked for one hour with 0.5% BSA-PBS. After clarification, the amplified phage were diluted 1:100 in 1% BSA plus 0.05% Tween 20 in PBS and added to the plates. Following incubation of the plates on a rotator for 1 to 2 hours, the plates were washed 5 times with 1% BSA plus 0.05% Tween 20 in PBS. Dilute anti-M13-HRP conjugate (anti-M13 antibody linked to horse radish peroxidase (HRP)) was added to all the wells and the plate was incubated for one hour on a rotator. After the plates were washed 5 times, as described above, TMB substrate was added to the wells. The plates were read at 650 nm absorbance.

[3] = system: rat gastro-intestinal tract (closed loop); experiment: Transport of preselected phage libraries in rat closed loop, detected by oligonucleotide hybridization/autoradiography; details: HPT1 pool; in words; PAX2 used at 4x concentration
Method: Four preselected phage libraries, GI-D2H, GI-hSI, GI-HPT1 and GI-hPEPT1, were constructed by pooling phage previously selected by screening random phage display libraries D38 and DC43 using the HPT1, HPEPT1, D2H and hSI receptor or binding sites located in the GIT.
In particular, phages selected in vitro to each receptor or binding site located in the GIT were amplified in E. coli, PEG-precipitated, resuspended in TBS and the titer of each phage sample was determined by plaquing in E. coli as described above. […] Using the in situ loop model described above, 0.5 ml of preselected phage library solution was injected into the tied-off portion of the duodenum/jejunum. Blood was collected into heparinized tubes from the portal vein at 0, 15, 30, 45 and 60 minutes. A blood sample was taken from the systemic circulation at the end of the experiment. Similarly, the portion of the duodenum/jejunum used for phage injection was taken at the end of the experiment.
Thirty microliters of the collected portal blood (neat and 10^−2, 10^−1, 10^−6 dilutions) was added to 30 μl E. coli K91Kan cells (overnight culture) and incubated at 37° C. for 10 min. Subsequently, 3 ml of top agarose was added and the samples were plated for plaques. One hundred microliters of the collected portal blood was added to 100 μl of E. coli K91Kan. Five milliliters of LB medium was then added and the samples were incubated at 37° C. overnight in a rotating microbial incubator. The E. coli was removed by centrifugation and the amplified phage supernatant samples were either titered directly or were PEG-precipitated, resuspended in TBS and titered. Following titration of the amplified phage, samples containing phage from each set of animals were combined, adjusting the titer of each sample to the same titer, and were plated for plaques on LB agar lates (22 cm^2 square plates). Either 12,000 or 24,000 phage were lated for plaques.
Thirty microliters of the collected systemic blood (neat and 10^−2, 10^−1, 10^−6 dilutions) was added to E. coli K91Kan cells, incubated at 37° C. for 10 min. Three ml of top agarose was then added and the samples were plated for plaques. One hundred microliters of the collected systemic blood was added to 100 μl of E. coli K91Kan, incubated at 37° C. for 10 min. Five milliliters of LB medium was then added and the samples were incubated at 37° C. overnight in a rotating microbial incubator. The E. coli was removed by centrifugation and the amplified phage supernatant samples were either titered directly or were PEG-precipitated, resuspended in TBS and titered. Following titration of the amplified phage, samples containing phage from each set of animals were combined, adjusting the titer of each sample to the same titer, and were plated for plaques on LB agar plates (22 cm^2 square plates). Either 12,000 or 24,000 phage were plated for plaques.
The intestinal tissue portion used in each closed loop was excised. […] Alternatively, the tissue (in PBS supplemented with protease inhibitors) was homogenized in an Ultra Thorex homogenizer, washed 3 times in PBS containing protease inhibitors and resuspended in PBS containing protease inhibitors (Int-G samples). In each case, serial dilutions (neat and 10^−2, 10^−4, 10^−6 dilutions) of the tissue homogenate was titered in E. coli.
The phage amplified from the portal blood, systemic blood and intestinal tissue was plated for plaques. […] The filters were air-dried, and the DNA was cross-linked to the filter (UV crosslinking: 2 min, high setting). The filters were incubated in pre-hybridization buffer (6×SSC, 5× Denhardt's solution, 0.1% SDS, […] yeast tRNA) at 40° C.–45° C. for at least 60 min.
Synthetic oligonucleotides, (22-mers), complimentary to regions coding for the receptor or binding sites used to create the preselected phage library, were synthesized (see Table 14 below).

[4] = Peptide stability in simulated intestinal fluid (SIF); type: in vitro ADME; details: rank of relative stability to SIF
Method: Peptide (3.25 mg) was dissolved in 3.25 ml of 10,000 fold diluted SIF solution at 37° C. Aliquots (0.7 ml) of the digestion solution were then withdrawn at <1 min, 1h, 3h, and 21h or 24h. The samples were quickly passed through a syringe filter (Millipore Millex-GV 0.22 μm, part# SLGV025LS, lot# H2BM95250) and 300 μL of the filtered solution was immediately injected onto a Hewlett-Packard HPLC system equipped with a C-8 column (Applied Biosystems column and guard column: column-p/n 0711-0023 Spheri-5 ODS 5 μm, 220×4.6 mm). The products were eluted at 1.5 ml/min using an acetonitrile-water gradient. The major fluorescent peaks were collected, lyopholized and identified by MS analysis.

[5] = system: P100 membrane fraction of Caco-2 cells; experiment: Dansylated peptide ELISA: relative binding of PAX2 and HAX42 peptides to P100 fractions (ratio to ZElan021); details: PAX2 peptides, first column, ratio to ZElan021 = 1.00
Method in brief: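 Plates coated overnight at 4 °C with Caco-2 P100 membrane fraction (normally 100 μg/ml, pH 9.6) and blocked with 2% Marvel/PBS were incubated with dansylated peptides. Binding was detected with anti-mouse λ-HRP and TMB, read at 650 nm, and expressed relative to ZElan021.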

[6] = biological target: bovine serum albumin (bovine) (UniProt P02769); experiment: phage ELISA on coated BSA
bovine serum albumin (bovine), sequence (P02769 25-607 limits assumed): as the sequence (P02769 25-607) above

[7] = biological target: T1, recombinant D2H receptor domain (human D2H transporter, amino acid residues 387-685), His-tag fusion protein (human); experiment: phage ELISA, OD on D2H over OD on BSA
[8] = biological target: T1, recombinant D2H receptor domain (human D2H transporter, amino acid residues 387-685), His-tag fusion protein (human); experiment: phage ELISA on coated D2H

Row | Molecule | Rel. Stab. [4] | OD [6] [OD 650 nm] | D2H/BSA [7] | OD [8] [OD 650 nm] | also measured
1 | SDHALGTNLRSDNAKEPGDYNCCGNGNSTGRKVFNRRRPSAIPT (not fully specified; cysteine pairing not given here) [HAX42] |  |  |  |  | Peptide/particle binding correlation ([1]; in words): correlated well; BSA [2]: 0.071 OD; Presence in the portal or systemic circulation [3]: found in the portal and systemic circulation
2 | C[C@@H](O)[C@H](NC(=O)[C@@H](N)CCCCNS(=O)(=O)c1cccc2c(N(C)C)cccc12)C(=O)N[C@@H](CCCNC(=N)N)C(=O)N[C@@H](CCCCN)C(=O)N[C@@H](CO)C(=O)N[C@@H](CO)C(=O)N[C@@H](CCCNC(=N)N)C(=O)N[C@@H](CO)C(=O)N[C@@H](CC(N)=O)C(=O)N1CCC[C@H]1C(=O)N[C@@H](CCCNC(=N)N)C(=O)NCC(=O)N[C@@H](CCCNC(=N)N)C(=O)N[C@@H](CCCNC(=N)N)C(=O)N[C@@H](Cc1c[nH]cn1)C(=O)N1CCC[C@H]1C(=O)NCC(N)=O [ZElan031] (H-K(Dansyl)TRKSSRSNPRGRRHPG-NH2) | 3 |  |  |  | 
3 | C[C@@H](O)[C@H](NC(=O)[C@@H](N)CCCCNS(=O)(=O)c1cccc2c(N(C)C)cccc12)C(=O)N[C@@H](CCCNC(=N)N)C(=O)N[C@@H](CCCCN)C(=O)N[C@@H](CO)C(=O)N[C@@H](CO)C(=O)N[C@H](CCCNC(=N)N)C(=O)N[C@@H](CO)C(=O)N[C@@H](CC(N)=O)C(=O)N1CCC[C@H]1C(=O)N[C@@H](CCCNC(=N)N)C(=O)NCC(=O)N[C@H](CCCNC(=N)N)C(=O)N[C@@H](CCCNC(=N)N)C(=O)N[C@@H](Cc1c[nH]cn1)C(=O)N1CCC[C@H]1C(=O)NCC(N)=O [ZElan054, H2N-K(dns)TRKSSrSNPRGrRHPG-CONH2] (H-K(Dansyl)TRKSS[dR]SNPRG[dR]RHPG-NH2) | 2 |  |  |  | 
4 | C[C@@H](O)[C@H](NC(=O)[C@@H](N)CCCCNS(=O)(=O)c1cccc2c(N(C)C)cccc12)C(=O)N[C@H](CCCNC(=N)N)C(=O)N[C@@H](CCCCN)C(=O)N[C@@H](CO)C(=O)N[C@@H](CO)C(=O)N[C@H](CCCNC(=N)N)C(=O)N[C@@H](CO)C(=O)N[C@@H](CC(N)=O)C(=O)N1CCC[C@H]1C(=O)N[C@H](CCCNC(=N)N)C(=O)NCC(=O)N[C@H](CCCNC(=N)N)C(=O)N[C@H](CCCNC(=N)N)C(=O)N[C@@H](Cc1c[nH]cn1)C(=O)N1CCC[C@H]1C(=O)NCC(N)=O [ZElan053, H2N-K(dns)TrKSSrSNPrGrrHPG-CONH2] (H-K(Dansyl)T[dR]KSS[dR]SNP[dR]G[dR][dR]HPG-NH2) | 1 |  |  |  | 
5 | H-K(Dansyl)STPPSREAYSRPYSVDSDSDTNAKHSSHNRRLRTRSRPNG-NH2 [ZElan018] |  |  |  |  | Binding value at 20 μg/ml ([5]; 20 μg/ml): −0.33; Binding value at 50 μg/ml ([5]; 50 μg/ml): 0.95; Binding of dansylated peptide to P100 fraction ([1]; repeat assay, compared with scrambled PAX2 control): indistinguishable from the scrambled PAX2 control
6 | RYKHDIGCDAGVDKKSSSVRGGCGAHSSPPRAGRGPRGTMVSRL [phage DCX8] |  | 0.063 | 3 | 0.163 | 
7 | SQGSKQCMQYRTGRLTVGSEYGCGMNPARHATPAYPARLLPRYR [phage DCX11] |  | 0.071 | 3 | 0.222 | 
8 | RYSGLSPRDNGPACSQEATLEGCGAQRLMSTRRKGRNSRPGWTL [phage DCX42] |  | 0.065 | 2 | 0.158 | 
